Columns and labels:
[1] = target: feline FcRn complex (FcRn-α subunit and β-microglobulin) (feline); assay: SPR (Biacore), FcRn on SA chip, pH 6
[2] = target: feline FcRn complex (FcRn-α subunit and β-microglobulin), biotin labeled (feline); assay: SPR, pH 6

| Molecule | Kd [1] | Kd [2] |
| --- | --- | --- |
| feline IgG1a mutant ID No. 262: S428L (antibody) | 25.4 nM | – |
| feline IgG1a mutant ID No. 259: S428L (antibody) | 24.5 nM | – |
| feline IgG1a mutant ID No. 263: S252Y, S254T, T256E (antibody) | 14 nM | – |
| feline IgG1a A378F (antibody, part only; not given: Variable domains, not shown: another chain or arm of the molecule) constant: ASTTAPSVFPLAPSCGTTSGATVALACLVLGYFPEPVTVSWNSGALTSGVHTFPAVLQASGLYSLSSMVTVPSSRWLSDTFTCNVAHPPSNTKVDKTVRKTDHPPGPKPCDCPKCPPPEMLGGPSIFIFPPKPKDTLSISRTPEVTCLVVDLGPDDSDVQITWFVDNTQVYTAKTSPREEQFNSTYRVVSVLPILHQDWLKGKEFKCKVNSKSLPSPIERTISKAKGQPHEPQVYVLPPAQEELSRNKVSVTCLIKSFHPPDIFVEWEITGQPEPENNYRTTPPQLDSDGTYFVYSKLSVDRSHWQRGNTYTCSVSHEALHSHHTQKSLTQSPGK | – | 74.8 nM |
| feline IgG1a A378L (antibody, part only; not given: Variable domains, not shown: another chain or arm of the molecule) constant: ASTTAPSVFPLAPSCGTTSGATVALACLVLGYFPEPVTVSWNSGALTSGVHTFPAVLQASGLYSLSSMVTVPSSRWLSDTFTCNVAHPPSNTKVDKTVRKTDHPPGPKPCDCPKCPPPEMLGGPSIFIFPPKPKDTLSISRTPEVTCLVVDLGPDDSDVQITWFVDNTQVYTAKTSPREEQFNSTYRVVSVLPILHQDWLKGKEFKCKVNSKSLPSPIERTISKAKGQPHEPQVYVLPPAQEELSRNKVSVTCLIKSFHPPDILVEWEITGQPEPENNYRTTPPQLDSDGTYFVYSKLSVDRSHWQRGNTYTCSVSHEALHSHHTQKSLTQSPGK | – | 34.7 nM |
| feline IgG1a A378I (antibody, part only; not given: Variable domains, not shown: another chain or arm of the molecule) constant: ASTTAPSVFPLAPSCGTTSGATVALACLVLGYFPEPVTVSWNSGALTSGVHTFPAVLQASGLYSLSSMVTVPSSRWLSDTFTCNVAHPPSNTKVDKTVRKTDHPPGPKPCDCPKCPPPEMLGGPSIFIFPPKPKDTLSISRTPEVTCLVVDLGPDDSDVQITWFVDNTQVYTAKTSPREEQFNSTYRVVSVLPILHQDWLKGKEFKCKVNSKSLPSPIERTISKAKGQPHEPQVYVLPPAQEELSRNKVSVTCLIKSFHPPDIIVEWEITGQPEPENNYRTTPPQLDSDGTYFVYSKLSVDRSHWQRGNTYTCSVSHEALHSHHTQKSLTQSPGK | – | 58.3 nM |
| feline IgG1a A378M (antibody, part only; not given: Variable domains, not shown: another chain or arm of the molecule) constant: ASTTAPSVFPLAPSCGTTSGATVALACLVLGYFPEPVTVSWNSGALTSGVHTFPAVLQASGLYSLSSMVTVPSSRWLSDTFTCNVAHPPSNTKVDKTVRKTDHPPGPKPCDCPKCPPPEMLGGPSIFIFPPKPKDTLSISRTPEVTCLVVDLGPDDSDVQITWFVDNTQVYTAKTSPREEQFNSTYRVVSVLPILHQDWLKGKEFKCKVNSKSLPSPIERTISKAKGQPHEPQVYVLPPAQEELSRNKVSVTCLIKSFHPPDIMVEWEITGQPEPENNYRTTPPQLDSDGTYFVYSKLSVDRSHWQRGNTYTCSVSHEALHSHHTQKSLTQSPGK | – | 26.6 nM |
| feline IgG1a mutant ID No. 284: S252Y, Q311W, D312P, S434Y (antibody, part only; not given: Variable domains, not shown: another chain or arm of the molecule) constant: ASTTAPSVFPLAPSCGTTSGATVALACLVLGYFPEPVTVSWNSGALTSGVHTFPAVLQASGLYSLSSMVTVPSSRWLSDTFTCNVAHPPSNTKVDKTVRKTDHPPGPKPCDCPKCPPPEMLGGPSIFIFPPKPKDTLYISRTPEVTCLVVDLGPDDSDVQITWFVDNTQVYTAKTSPREEQFNSTYRVVSVLPILHWPWLKGKEFKCKVNSKSLPSPIERTISKAKGQPHEPQVYVLPPAQEELSRNKVSVTCLIKSFHPPDIAVEWEITGQPEPENNYRTTPPQLDSDGTYFVYSKLSVDRSHWQRGNTYTCSVSHEALHYHHTQKSLTQSPGK | 7.27 nM | – |
| feline IgG1a A378H (antibody, part only; not given: Variable domains, not shown: another chain or arm of the molecule) constant: ASTTAPSVFPLAPSCGTTSGATVALACLVLGYFPEPVTVSWNSGALTSGVHTFPAVLQASGLYSLSSMVTVPSSRWLSDTFTCNVAHPPSNTKVDKTVRKTDHPPGPKPCDCPKCPPPEMLGGPSIFIFPPKPKDTLSISRTPEVTCLVVDLGPDDSDVQITWFVDNTQVYTAKTSPREEQFNSTYRVVSVLPILHQDWLKGKEFKCKVNSKSLPSPIERTISKAKGQPHEPQVYVLPPAQEELSRNKVSVTCLIKSFHPPDIHVEWEITGQPEPENNYRTTPPQLDSDGTYFVYSKLSVDRSHWQRGNTYTCSVSHEALHSHHTQKSLTQSPGK | – | 49.3 nM |
| feline IgG1a A378P (antibody, part only; not given: Variable domains, not shown: another chain or arm of the molecule) constant: ASTTAPSVFPLAPSCGTTSGATVALACLVLGYFPEPVTVSWNSGALTSGVHTFPAVLQASGLYSLSSMVTVPSSRWLSDTFTCNVAHPPSNTKVDKTVRKTDHPPGPKPCDCPKCPPPEMLGGPSIFIFPPKPKDTLSISRTPEVTCLVVDLGPDDSDVQITWFVDNTQVYTAKTSPREEQFNSTYRVVSVLPILHQDWLKGKEFKCKVNSKSLPSPIERTISKAKGQPHEPQVYVLPPAQEELSRNKVSVTCLIKSFHPPDIPVEWEITGQPEPENNYRTTPPQLDSDGTYFVYSKLSVDRSHWQRGNTYTCSVSHEALHSHHTQKSLTQSPGK | – | 68.4 nM |
| feline IgG1a A378N (antibody, part only; not given: variable domains and light chain, not shown: another chain or arm of the molecule) constant: ASTTAPSVFPLAPSCGTTSGATVALACLVLGYFPEPVTVSWNSGALTSGVHTFPAVLQASGLYSLSSMVTVPSSRWLSDTFTCNVAHPPSNTKVDKTVRKTDHPPGPKPCDCPKCPPPEMLGGPSIFIFPPKPKDTLSISRTPEVTCLVVDLGPDDSDVQITWFVDNTQVYTAKTSPREEQFNSTYRVVSVLPILHQDWLKGKEFKCKVNSKSLPSPIERTISKAKGQPHEPQVYVLPPAQEELSRNKVSVTCLIKSFHPPDINVEWEITGQPEPENNYRTTPPQLDSDGTYFVYSKLSVDRSHWQRGNTYTCSVSHEALHSHHTQKSLTQSPGK | – | 28.6 nM |
| feline IgG1a mutant ID No. 275: S252R, S434R (antibody, part only; not given: Variable domains, not shown: another chain or arm of the molecule) constant: ASTTAPSVFPLAPSCGTTSGATVALACLVLGYFPEPVTVSWNSGALTSGVHTFPAVLQASGLYSLSSMVTVPSSRWLSDTFTCNVAHPPSNTKVDKTVRKTDHPPGPKPCDCPKCPPPEMLGGPSIFIFPPKPKDTLRISRTPEVTCLVVDLGPDDSDVQITWFVDNTQVYTAKTSPREEQFNSTYRVVSVLPILHQDWLKGKEFKCKVNSKSLPSPIERTISKAKGQPHEPQVYVLPPAQEELSRNKVSVTCLIKSFHPPDIAVEWEITGQPEPENNYRTTPPQLDSDGTYFVYSKLSVDRSHWQRGNTYTCSVSHEALHRHHTQKSLTQSPGK | 78.6 nM | – |

Further lines, results first:

| Kd [1] | Kd [2] | Molecule |
| --- | --- | --- |
| 8 nM | – | feline IgG1a mutant ID No. 253: S428M, S434L (antibody, part only; not given: Variable domains, not shown: another chain or arm of the molecule) constant: ASTTAPSVFPLAPSCGTTSGATVALACLVLGYFPEPVTVSWNSGALTSGVHTFPAVLQASGLYSLSSMVTVPSSRWLSDTFTCNVAHPPSNTKVDKTVRKTDHPPGPKPCDCPKCPPPEMLGGPSIFIFPPKPKDTLSISRTPEVTCLVVDLGPDDSDVQITWFVDNTQVYTAKTSPREEQFNSTYRVVSVLPILHQDWLKGKEFKCKVNSKSLPSPIERTISKAKGQPHEPQVYVLPPAQEELSRNKVSVTCLIKSFHPPDIAVEWEITGQPEPENNYRTTPPQLDSDGTYFVYSKLSVDRSHWQRGNTYTCSVMHEALHLHHTQKSLTQSPGK |
| – | 88.3 nM | feline IgG1a A378G (antibody, part only; not given: Variable domains, not shown: another chain or arm of the molecule) constant: ASTTAPSVFPLAPSCGTTSGATVALACLVLGYFPEPVTVSWNSGALTSGVHTFPAVLQASGLYSLSSMVTVPSSRWLSDTFTCNVAHPPSNTKVDKTVRKTDHPPGPKPCDCPKCPPPEMLGGPSIFIFPPKPKDTLSISRTPEVTCLVVDLGPDDSDVQITWFVDNTQVYTAKTSPREEQFNSTYRVVSVLPILHQDWLKGKEFKCKVNSKSLPSPIERTISKAKGQPHEPQVYVLPPAQEELSRNKVSVTCLIKSFHPPDIGVEWEITGQPEPENNYRTTPPQLDSDGTYFVYSKLSVDRSHWQRGNTYTCSVSHEALHSHHTQKSLTQSPGK |
| 7.95 nM | – | feline IgG1a mutant ID No. 265: Q311W, D312P, L314K, S434Y (antibody, part only; not given: Variable domains, not shown: another chain or arm of the molecule) constant: ASTTAPSVFPLAPSCGTTSGATVALACLVLGYFPEPVTVSWNSGALTSGVHTFPAVLQASGLYSLSSMVTVPSSRWLSDTFTCNVAHPPSNTKVDKTVRKTDHPPGPKPCDCPKCPPPEMLGGPSIFIFPPKPKDTLSISRTPEVTCLVVDLGPDDSDVQITWFVDNTQVYTAKTSPREEQFNSTYRVVSVLPILHWPWKKGKEFKCKVNSKSLPSPIERTISKAKGQPHEPQVYVLPPAQEELSRNKVSVTCLIKSFHPPDIAVEWEITGQPEPENNYRTTPPQLDSDGTYFVYSKLSVDRSHWQRGNTYTCSVSHEALHYHHTQKSLTQSPGK |
| – | 104 nM | feline IgG1a A378K (antibody, part only; not given: Variable domains, not shown: another chain or arm of the molecule) constant: ASTTAPSVFPLAPSCGTTSGATVALACLVLGYFPEPVTVSWNSGALTSGVHTFPAVLQASGLYSLSSMVTVPSSRWLSDTFTCNVAHPPSNTKVDKTVRKTDHPPGPKPCDCPKCPPPEMLGGPSIFIFPPKPKDTLSISRTPEVTCLVVDLGPDDSDVQITWFVDNTQVYTAKTSPREEQFNSTYRVVSVLPILHQDWLKGKEFKCKVNSKSLPSPIERTISKAKGQPHEPQVYVLPPAQEELSRNKVSVTCLIKSFHPPDIKVEWEITGQPEPENNYRTTPPQLDSDGTYFVYSKLSVDRSHWQRGNTYTCSVSHEALHSHHTQKSLTQSPGK |
| 71.7 nM | – | feline IgG1a mutant ID No. 264: D312P, L314K, S434Y (antibody, part only; not given: Variable domains, not shown: another chain or arm of the molecule) constant: ASTTAPSVFPLAPSCGTTSGATVALACLVLGYFPEPVTVSWNSGALTSGVHTFPAVLQASGLYSLSSMVTVPSSRWLSDTFTCNVAHPPSNTKVDKTVRKTDHPPGPKPCDCPKCPPPEMLGGPSIFIFPPKPKDTLSISRTPEVTCLVVDLGPDDSDVQITWFVDNTQVYTAKTSPREEQFNSTYRVVSVLPILHQPWKKGKEFKCKVNSKSLPSPIERTISKAKGQPHEPQVYVLPPAQEELSRNKVSVTCLIKSFHPPDIAVEWEITGQPEPENNYRTTPPQLDSDGTYFVYSKLSVDRSHWQRGNTYTCSVSHEALHYHHTQKSLTQSPGK |
| 7.53 nM | – | feline IgG1a mutant ID No. 255: S428M, S434P (antibody, part only; not given: Variable domains, not shown: another chain or arm of the molecule) constant: ASTTAPSVFPLAPSCGTTSGATVALACLVLGYFPEPVTVSWNSGALTSGVHTFPAVLQASGLYSLSSMVTVPSSRWLSDTFTCNVAHPPSNTKVDKTVRKTDHPPGPKPCDCPKCPPPEMLGGPSIFIFPPKPKDTLSISRTPEVTCLVVDLGPDDSDVQITWFVDNTQVYTAKTSPREEQFNSTYRVVSVLPILHQDWLKGKEFKCKVNSKSLPSPIERTISKAKGQPHEPQVYVLPPAQEELSRNKVSVTCLIKSFHPPDIAVEWEITGQPEPENNYRTTPPQLDSDGTYFVYSKLSVDRSHWQRGNTYTCSVMHEALHPHHTQKSLTQSPGK |
| 27 nM | – | feline IgG1a mutant ID No. 286: S252Y, S428Y, D312P, L314K (antibody, part only; not given: Variable domains, not shown: another chain or arm of the molecule) constant: ASTTAPSVFPLAPSCGTTSGATVALACLVLGYFPEPVTVSWNSGALTSGVHTFPAVLQASGLYSLSSMVTVPSSRWLSDTFTCNVAHPPSNTKVDKTVRKTDHPPGPKPCDCPKCPPPEMLGGPSIFIFPPKPKDTLYISRTPEVTCLVVDLGPDDSDVQITWFVDNTQVYTAKTSPREEQFNSTYRVVSVLPILHQPWKKGKEFKCKVNSKSLPSPIERTISKAKGQPHEPQVYVLPPAQEELSRNKVSVTCLIKSFHPPDIAVEWEITGQPEPENNYRTTPPQLDSDGTYFVYSKLSVDRSHWQRGNTYTCSVYHEALHSHHTQKSLTQSPGK |
